Columns and labels:
Format in all cases: cell-based, human
[1] = test system: anti-CD19 CAR+ T cells; assay: Chronic stimulation assay, 14 days with anti-ID conjugated beads, then K562-CD19 challenge; conditions: 14 days CAR-specific stimulation versus none; E:T 1:1
Description: Separate compositions of CD4+ and CD8+ cells were isolated from human donors, activated and transduced with a viral vector encoding an anti-CD19 CAR having an scFv derived from FMC63. CD4+ and CD8+ T cells from each donor were then separately harvested, formulated, and cryofrozen. The cryofrozen engineered CD4+ and CD8+ T cells were thawed and formulated at a 1:1 ratio of CD4+ and CD8+ T cells from the same donor to generate a T cell composition containing CAR+ T cells. Anti-ID conjugated beads against the anti-CD19 CAR were incubated with cells at a 1:1 bead:cell ratio for 14 days.
[…] The primary response of T cells from the T cell composition that had not been incubated with the anti-ID conjugated beads also was determined by similar stimulation with antigen-expressing cells (Day 0; “primary”). […] Killing activity was assessed by measuring the loss of viable target cells over 72 hours, as determined by loss of fluorescent signal over time by kinetic fluorescence microscopy (using the INCUCYTE® Live Cell Analysis System, Essen Bioscience). Killing index was determined as the inverse of the area under the curve (AUC) for target fluorescence over time. Intracellular cytokine levels of IL-2 and TNF-alpha also was assessed by flow cytometry in co-cultured T cells after incubation in the presence of Golgi inhibitor. […]

[2] = test system: T cells transduced with anti-CD19 CAR having an scFv derived from FMC63; assay: Cytokine levels and phenotype at thaw versus after 9 days with anti-ID B-1 conjugated beads; conditions: 9 days with beads versus immediately after thaw
Description: CD3-purified T cells were isolated from peripheral blood mononuclear cells (PBMCs) of two donor patients, transduced with a viral vector encoding an anti-CD19 CAR having an scFv derived from FMC63 and expanded in culture with anti-CD3 and anti-CD28 antibody coated beads. After expansion, the expanded T cells were frozen by cryopreservation. For the studies, frozen T cells were thawed and CD4+ and CD8+ T cells assessed for intracellular cytokine levels or surface phenotype (d=0) or thawed CD4+, CD8+, or CD4+/CD8+ co-culture T cells were cultured for an additional 9 days in the presence of anti-ID B-1 conjugated beads prior to assessing intracellular cytokine levels and surface marker phenotype following stimulation by PMA/ionomycin or CD19 transduced K562 cells (d=9).
For assessment of intracellular cytokine levels, Golgi inhibitor was added for 4 hours and then TNFα, IFNγ, and IL-2 was assessed by flow cytometry. For all conditions, the extent of intracellular cytokine expression was substantially greater when cells were stimulated in with PMA/ionomycin as compared to CAR-specific stimulation with CD19 transduced K562 cells. […] Similar results were obtained in cells from the two donors.
Surface expression of the activation marker CD25, surface expression of inhibitory receptors PD-1 and LAG-3, and nuclear expression of the proliferation marker Ki-67 were also assessed in CD4+ or CD8+ cells immediately after thaw (d=0) or in CD4+ or CD8+ T cells expanded alone or as a CD4/CD8 co-culture for an additional 9 days in the presence of the anti-ID conjugated beads (d=9).

[3] = test system: T cells transduced with anti-CD19 CAR having an scFv derived from FMC63; assay: CAR-specific cell expansion with anti-ID B-1 conjugated beads, 9 days, two patient donors
Experimental: Similar studies as those described in Examples 11 and 12 were performed, except using CAR-expressing T cells generated from two different patient donors. CD3-purified T cells were isolated from peripheral blood mononuclear cells (PBMCs) of two donor patients, transduced with a viral vector encoding an anti-CD19 CAR having an scFv derived from FMC63, expanded in culture, frozen, and thawed.
Thawed CD4+, CD8+ or co-cultures of CD4/CD8 (1:1 ratio) were seeded in wells of a 6-well plate at approximately 5×10^6 total cells/well in culture media that was additionally supplemented with cytokines as follows: for CD4+ cells or CD4+/CD8+ co-cultures media was supplemented with approximately 1200 IU/mL recombinant IL-7, 20 IU/mL recombinant IL-15 and 100 IU/mL recombinant IL-2; for CD8+ cells media was supplemented with 200 IU/mL recombinant IL-2 and 20 IU/mL recombinant IL-15. Anti-ID B-1 conjugated beads were added to cells at a 1:1 cell:bead ratio and incubated up to 9 days with a 50% media exchange every 2-3 days.
At various times of culture, the number of CD4+ or CD8+ transduced cells (as detected by anti-EGFR for expression of the EGFRt surrogate marker) present in the culture for each condition was assessed and fold expansion or frequency of the CAR-expressing cells as a percent of total cells was determined. Expression of PD-1 and CD25 and cell viability also was determined.

B1: anti-ID conjugated beads: FMC63-derived scFv-specific anti-idiotype antibody (B-1 in Examples 10-14) covalently coupled to tosyl-activated magnetic beads (conjugate)
heavy: EVQLQQSGPELVKPGASVKMSCKASGYTFTDYYMKWVKQCHGKSLEWIGDINPNNGGTDYNQNFKGKATLTVDKSSSTAYMQLNSLTSEDSAVYYCAREGNNYGSRDAMDYWGQGTSVTVSSAKTTAPSVYPLAPVCGDTTGSSVTLGCLVKGYFPEPVTLTWNSGSLSSGVHTFPAVLQSDLYTLSSSVTVTSSTWPSQSITCNVAHPASSTKVDKKIEPRGPTIKPCPPCKCPAPNLLGGPSVFIFPPKIKDVLMISLSPIVTCVVVDVSEDDPDVQISWFVNNVEVHTAQTQTHREDYNSTLRVVSALPIQHQDWMSGKEFKCKVNNKDLPAPIERTISKPKGSVRAPQVYVLPPPEEEMTKKQVTLTCMVTDFMPEDIYVEWTNNGKTELNYKNTEPVLDSDGSYFMYSKLRVEKKNWVERNSYSCSVVHEGLHNHHTTKSFSRTPGK
light: QIVLTQSPALMSASPGEKVTMTCSASSGVIYMYWYQQKPRSSPKPWIYLTSNLASGVPARFSGSGSGTSYSLTISSMEAEDAATYYCQQWSSNPLTFGAGTKLELKRADAAPTVSIFPPSSEQLTSGGASVVCFLNNFYPKDINVKWKIDGSERQNGVLNSWTDQDSKDSTYSMSSTLTLTKDEYERHNSYTCEATHKTSTSPIVKSFNRNEC
Intracellular cytokine levels of IL-2 and TNF-alpha [1]: also were reduced | expression of CD25 and Ki-67 [2]: reduced expression of CD25, but not Ki-67 | expression of PD-1 and LAG-3 [2]: decreased expression of PD-1 and LAG-3 | levels of IFNγ [2]: Increased levels of IFNγ | expansion of CAR-expressing (EGFRt+) CD4+ T cells ([3]; CD4+ cells cultured alone, 1:1 cell:bead, up to 9 days): over 60 fold | expansion of CAR-expressing (EGFRt+) CD8+ T cells ([3]; CD8+ T cells co-cultured with CD4+ cells): substantially higher expansion | CD25 expression ([3]; after 9 days): also was decreased | frequency of transduced cells (EGFRt+) in the culture ([3]; day 9): > 90% | PD-1 expression on CD4+ and CD8+ T cells ([3]; days 5, 7 and 9): decreased substantially over time | Viability of CD4+ and CD8+ cells ([3]; during the 9 day culture): ~100%

— US20230242654A1, “REAGENTS FOR EXPANDING CELLS EXPRESSING RECOMBINANT RECEPTORS” (Juno Therapeutics, Inc., priority 2017, published 2023)
